The values below come from PMC5630700 (Frontiers in Immunology, 2017).

In this assay the target is MARV Musoke NP tagged with FLAG at the N-terminus and His6 at the C-terminus (Wt) (Marburg virus Musoke-80, UniProt P27588). Description: far-Western, overlay or dot blot. The note with it: one partner purified.
MARV Musoke NP tagged with FLAG at the N-terminus and His6 at the C-terminus (Wt), sequence (P27588 whole entry): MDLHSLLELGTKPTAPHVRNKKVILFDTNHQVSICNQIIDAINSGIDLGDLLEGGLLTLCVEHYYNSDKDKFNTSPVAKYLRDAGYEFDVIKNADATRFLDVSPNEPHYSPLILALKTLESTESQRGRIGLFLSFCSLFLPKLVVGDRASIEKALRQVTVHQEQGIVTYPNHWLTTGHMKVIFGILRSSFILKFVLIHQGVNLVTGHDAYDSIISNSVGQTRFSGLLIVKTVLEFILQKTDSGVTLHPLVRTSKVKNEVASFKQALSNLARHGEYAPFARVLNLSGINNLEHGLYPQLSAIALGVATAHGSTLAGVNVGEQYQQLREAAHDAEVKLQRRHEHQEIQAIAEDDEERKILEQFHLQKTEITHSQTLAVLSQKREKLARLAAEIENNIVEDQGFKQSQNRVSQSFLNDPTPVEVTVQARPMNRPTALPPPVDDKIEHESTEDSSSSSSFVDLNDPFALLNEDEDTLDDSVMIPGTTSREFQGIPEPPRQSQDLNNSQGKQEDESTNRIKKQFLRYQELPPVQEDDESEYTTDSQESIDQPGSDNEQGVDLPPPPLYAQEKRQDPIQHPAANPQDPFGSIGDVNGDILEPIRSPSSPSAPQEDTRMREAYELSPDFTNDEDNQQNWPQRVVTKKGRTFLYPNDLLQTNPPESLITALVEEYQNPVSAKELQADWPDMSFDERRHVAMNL

B1: sdAb D–alkaline phosphatase fusion protein (pecan16) (VHH)
VHH: KVKLQESGGGTVQAGGSLRLSCKASGFTFRSSAMGWYRRAPGQHRIFVGSFSRNEFKYADFAQGRFTISRDNAKNTVSLQMNHVIPEDTAVYYCHEDPYGMESLRYWGQGTQVTVSS
Regarding B1, the binding result is “binds”.
